Source: paper PMC6761149

Columns and labels:
[1] = molecular target: light-dependent protochlorophyllide oxidoreductase of Thermosynechococcus elongatus BP-1 (TeLPOR) (Thermosynechococcus elongatus BP-1) (UniProt Q8DLC1); test: AUC; sedimentation velocity with multiwavelength absorbance optics (MWA-AUC), 20 °C, 50 krpm, c(s) model in SEDFIT; apoprotein (no NADPH, no Pchlide), 0.615 mg ml^-1 (1.23 mg ml^-1 diluted to half with reaction buffer)
[2] = molecular target: light-dependent protochlorophyllide oxidoreductase of Thermosynechococcus elongatus BP-1 (TeLPOR) (Thermosynechococcus elongatus BP-1) (UniProt Q8DLC1); test: SAXS; ESRF BM29, 10 °C, 20 mM Tris/HCl pH 7.5, 500 mM NaCl, 20% (v/v) glycerol; apoprotein (no NADPH, no Pchlide), concentration series, apo 2 dataset merged from low and high concentration; dimer content assuming only monomers and dimers

percent dimers (apoprotein, without NADPH and Pchlide) [1]: 3.6%
dimer content (%) from I(0) (apoprotein, without NADPH and Pchlide) [2]: 0%
dimer content (%) from Vp (apoprotein, without NADPH and Pchlide) [2]: 1.7%
Substance: light-dependent protochlorophyllide oxidoreductase of Thermosynechococcus elongatus BP-1 (TeLPOR) (from UniProt Q8DLC1 1-322) (enzyme)
